The text below walks through data of article PMC6920965, “Plant Polyphenols Inhibit Functional Amyloid and Biofilm Formation in Pseudomonas Strains by Directing Monomers to Off-Pathway Oligomers” (Biomolecules, 2019).

The term IC50 denotes the concentration at which inhibition is half-maximal. A word on the stoichiometry N: it is a count of units in the complex or per binding partner.

Test [1] concerns the target T1, FapC (FapC-UK4) (Pseudomonas fluorescens, UniProt P0DXF5).
T1 construct: His-tagged FapC wt, 226-residue mature protein without the 24-residue signal peptide
T1 sequence (P0DXF5 25-250): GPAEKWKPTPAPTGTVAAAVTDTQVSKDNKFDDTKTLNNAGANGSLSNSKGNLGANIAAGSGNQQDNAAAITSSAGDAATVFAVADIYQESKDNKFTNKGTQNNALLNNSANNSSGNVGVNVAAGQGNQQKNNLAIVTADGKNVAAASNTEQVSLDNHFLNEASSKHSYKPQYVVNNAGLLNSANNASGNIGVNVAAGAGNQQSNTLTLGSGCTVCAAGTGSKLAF
Description: peptide array and SDS-PAGE blot with NBT staining; supported by ThT fibrillation, SEC and SAXS. It is filed as binding.

Another test concerns the target FapC-PAO1 (Pseudomonas aeruginosa, UniProt Q9I2F0). Nature of the test: ThT fibrillation assay ([…] FapC-PAO1, […] polyphenol) and SDS-PAGE. The class given is biochemical.
Test [2] deals with T2, FapC (FapC-UK4) (Pseudomonas fluorescens, UniProt P0DXF5).
T2 construct: His-tagged FapC wt, mature protein (226 residues)
Description: ThT fibrillation assay of purified FapC; supported by CD, ATR-FTIR, SEC and SAXS of oligomers. The class given is biochemical.

The target of test [3] is FapC from Pseudomonas sp. UK4, wild type (Pseudomonas sp. UK4). Nature of the test: SAXS; freshly desalted sample without TCEP; aggregation number (Nagg) by indirect Fourier transformation.
The target is the same in test [4]. Description: SAXS; oligomers formed in the presence of baicalein and purified by SEC; Nagg by indirect Fourier transformation; core-shell model. In general terms: Size exclusion chromatography separates by hydrodynamic size, large species first.
Test [5] shares this target. Description: SAXS; oligomers formed in the presence of EGCG and purified by SEC; Nagg by indirect Fourier transformation; core-shell model.
For test [6] the target is unchanged. Nature of the test: SAXS; oligomers formed in the presence of PGG and purified by SEC; Nagg by indirect Fourier transformation; core-shell model.
In test [7] the target is FapC-UK4 mutant lacking all three imperfect repeats (∆R1R2R3) (Pseudomonas sp. UK4). Nature of the test: SAXS; freshly desalted sample without TCEP; aggregation number (Nagg) by indirect Fourier transformation.
Test [8] shares this target. Description: SAXS; oligomers formed in the presence of PGG and purified by SEC; Nagg by indirect Fourier transformation; core-shell model.

FapC-PAO1, sequence (Q9I2F0 25-340): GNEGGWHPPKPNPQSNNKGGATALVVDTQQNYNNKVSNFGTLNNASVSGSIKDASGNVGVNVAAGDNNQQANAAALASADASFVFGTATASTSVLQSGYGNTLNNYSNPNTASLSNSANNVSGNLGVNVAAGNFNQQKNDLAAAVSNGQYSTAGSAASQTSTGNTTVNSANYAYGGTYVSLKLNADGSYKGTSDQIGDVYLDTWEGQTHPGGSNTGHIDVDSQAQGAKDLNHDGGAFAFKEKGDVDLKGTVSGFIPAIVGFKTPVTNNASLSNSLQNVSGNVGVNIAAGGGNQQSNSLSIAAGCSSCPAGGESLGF

With `O=C(O[C@@H]1Cc2c(O)cc(O)cc2O[C@@H]1c1cc(O)c(O)c(O)c1)c1cc(O)c(O)c(O)c1` [EGCG, epigallocatechin gallate], the “peptide array and SDS-PAGE blot with NBT staining; supported by ThT fibrillation” value at FapC (FapC-UK4) [1] was “The intensity of EGCG binding varied significantly across the probed peptides (Figure 6C), showing particular affinity for regions”. Further, the “ThT fibrillation assay (30 μM FapC-PAO1, 100 μM polyphenol) and SDS-PAGE” value (shortened to “ThT fibrillation assay”) on FapC-PAO1 was “PGG, EGCG, and baicalein keep FapC monomeric or lead to off-pathway oligomers (Figure 4B)”.
With `O=c1cc(-c2ccccc2)oc2cc(O)c(O)c(O)c12` [baicalein], the “ThT fibrillation assay” value at FapC-PAO1 is “PGG, EGCG, and baicalein keep FapC monomeric or lead to off-pathway oligomers (Figure 4B)”.
As for `O=C(OC[C@H]1O[C@@H](OC(=O)c2cc(O)c(O)c(O)c2)[C@H](OC(=O)c2cc(O)c(O)c(O)c2)[C@@H](OC(=O)c2cc(O)c(O)c(O)c2)[C@@H]1OC(=O)c1cc(O)c(O)c(O)c1)c1cc(O)c(O)c(O)c1` [PGG, penta-O-galloyl-β-D-glucose], at FapC (FapC-UK4) [2], the IC50 was around 26 µM. At FapC-PAO1, the “ThT fibrillation assay” value is “PGG, EGCG, and baicalein keep FapC monomeric or lead to off-pathway oligomers (Figure 4B)”.
In the case of “FapC from Pseudomonas sp. UK4, wild type (natural protein)”, the stoichiometry N in [3] was determined as 4.4; in test [4] it was 6.7; in test [5], 6.7; in test [6], 7.6.
For the compound “FapC-UK4 mutant lacking all three imperfect repeats (∆R1R2R3) (domain or fragment)”, the results for the stoichiometry N in [7] and in [8] were 2.7 and 4.7, respectively.
